Source: the supplement of paper PMC9170038

System: MS2 coat protein
Test: apparent KD of MS2 coat protein; designed switch direction (-1 OFF switch, 1 ON switch): -1; higher = weaker reporter binding
Summary of the method: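 SNAP-549-labelled MS2 coat protein was titrated, doubling from 0.7 or 1.5 nM to 3 µM, over designed RNA switches transcribed on Illumina chips by stalled E. coli RNA polymerase. Runs were done without input, with 200 uM small-molecule ligand, or with an oligonucleotide input. Apparent KD is the per-design median over clusters of curve-fitted normalised fluorescence.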

[1] = Eterna round: R95, input ligand: FMN 200 uM
[2] = Eterna round: R95, input ligand: microRNA oligo, concentration not stated
[3] = Eterna round: R95, input ligand: none
[4] = input ligand: microRNA oligo, concentration not stated

GAAAAGGUAGGAUAUACGAAAAGAAAGGGUAGAGAAGAAACACAUGAGGAUCACCCAUGUAGAAGGACCAAAAG [salish99_ex2_r3_098] (puzzle: Exclusion 2)
apparent KD of MS2 coat protein [1]: 0.0964 µM | apparent KD of MS2 coat protein [2]: 0.0264 µM | apparent KD of MS2 coat protein [3]: 0.0284 µM

GAAAAGGUAGGAUAUACGAAAAUAAAGGGUAGAAAUAAAACACAUGAGGAUCACCCAUGUAGAAGGACCAAAAG [salish99_ex2_r3_096] (puzzle: Exclusion 2)
apparent KD of MS2 coat protein [1]: 0.0706 µM | apparent KD of MS2 coat protein [2]: 0.0233 µM | apparent KD of MS2 coat protein [3]: 0.0232 µM

GAAAAGGUAGGAUAUACGAAGAAAAAGGGUAGAAAAAAAACACAUGAGGAUCACCCAUGUAGAAGGACCAAAAG [salish99_ex2_r3_028] (puzzle: Exclusion 2)
apparent KD of MS2 coat protein [1]: 0.0544 µM | apparent KD of MS2 coat protein [2]: 0.0238 µM | apparent KD of MS2 coat protein [3]: 0.0202 µM

GAAAAGGUAGGAUAUACGAGAAAAAAGGGUAGAAAAAAAACACAUGAGGAUCACCCAUGUAGAAGGACCAAAAG [salish99_ex2_r3_029] (puzzle: Exclusion 2)
apparent KD of MS2 coat protein [1]: 0.0355 µM | apparent KD of MS2 coat protein [2]: 0.0231 µM | apparent KD of MS2 coat protein [3]: 0.0213 µM

GAAAAGGUAGGAUAUACGAUAAUAAAGGGUAGAUAAUAAACACAUGAGGAUCACCCAUGUAGAAGGACCAAAAG [salish99_ex2_r3_103] (puzzle: Exclusion 2)
apparent KD of MS2 coat protein [1]: 0.127 µM | apparent KD of MS2 coat protein [2]: 0.035 µM | apparent KD of MS2 coat protein [3]: 0.0352 µM

GAAAAGUGAGGAUAUGGUAAAAAAAAAAGAAAAAAAAAACUCCAGAAGGCACAUGAGGAUCACCCAUGUAAAAG [salish99_ex4_r3_003] (puzzle: Exclusion 4)
apparent KD of MS2 coat protein [1]: 0.0419 µM | apparent KD of MS2 coat protein [2]: 0.0195 µM | apparent KD of MS2 coat protein [3]: 0.0586 µM

GAAAAGUGAGGAUAUGGUAAAAGAAAAAGAAAAAAAAAACUCCAGAAGGCACAUGAGGAUCACCCAUGUAAAAG [salish99_ex4_r3_004] (puzzle: Exclusion 4)
apparent KD of MS2 coat protein [1]: 0.0335 µM | apparent KD of MS2 coat protein [2]: 0.0245 µM | apparent KD of MS2 coat protein [3]: 0.024 µM

GAAAAGUGAGGAUAUGGUAAAAGAAAAAGAAAAAGAAAACUCCAGAAGGCACAUGAGGAUCACCCAUGUGAAAG [salish99_ex4_r3_006] (puzzle: Exclusion 4)
apparent KD of MS2 coat protein [1]: 0.0157 µM | apparent KD of MS2 coat protein [2]: 0.0162 µM | apparent KD of MS2 coat protein [3]: 0.0158 µM

GAAACGGGUGCACCUCAGUCACAUGAGGAUCACCCAUGUUCUGAGGAUAUGCAUCCAAACGGAACGCAGAAGGCGGAACGUAAC [Beisoner] (Eterna round: R96, puzzle: Exclusion NG 3)
apparent KD of MS2 coat protein (input ligand: FMN 200 uM): 0.0146 µM | apparent KD of MS2 coat protein [4]: 0.014 µM | apparent KD of MS2 coat protein (input ligand: none): 0.0164 µM

GAAAUACAUGAGGAUCACCCAUGUGAGGAUAUGCUAUGGAAAUAAAAAAUAAAACAUAGCAGAAGGUACAAAAG [Mat - Exclusion 1 - Eli mod - D43] (Eterna round: R96, puzzle: Exclusion 1)
apparent KD of MS2 coat protein [4]: 0.0509 µM

GAACAAGCGUGAGGCUCGUCUUAAAGAGCCUCAUGAAAAACAUGAGGAUCACCCAUGUAAAAUGAUCGAAAGAUCAA [Mat - Sensor v2 - var 2 - Mod - D131] (Eterna round: R96, puzzle: Sensor v2, turn-off variant 2)
apparent KD of MS2 coat protein (input ligand: FMN 200 uM): 0.0149 µM | apparent KD of MS2 coat protein [4]: 0.0127 µM | apparent KD of MS2 coat protein (input ligand: none): 0.0169 µM

GAACCAUGAGGAUAUUCUGAUCCUUACAUGAGGAUCACCCAUGUGAGUACAAAAGUACUCGAAGAAGGCAUGGUUC [Omei Ex5 B1] (Eterna round: R97, puzzle: Exclusion 5)
apparent KD of MS2 coat protein (input ligand: FMN 200 uM): 0.616 µM | apparent KD of MS2 coat protein (input ligand: none): 2.13 µM

GAACUGAAGCUUUGCUUUAGUCGUACAUGAGGAUCACCCAUGUAGGAUAUGGUAGGCUUUGCUUACUAGAAGGACAGAGUGAUC [Mat - Exclusion NG 3 - Mod of JL - D68] (Eterna round: R96, puzzle: Exclusion NG 3)
apparent KD of MS2 coat protein (input ligand: FMN 200 uM): 0.0618 µM | apparent KD of MS2 coat protein [4]: 0.0738 µM | apparent KD of MS2 coat protein (input ligand: none): 0.113 µM

GAAGAAGAGAGAAAAGAAAACAUGAGGAUCACCCAUGUGAGAAGAUGAGGGUGUAACAGGCUUUAUGCUCGUCUUAU (puzzle: Sensor v3, turn-off variant 1)
apparent KD of MS2 coat protein [1]: 0.0336 µM | apparent KD of MS2 coat protein [2]: 0.12 µM | apparent KD of MS2 coat protein [3]: 0.0401 µM

GAAGAGACAGGAUAUACAUGAGGAUCACCCAUGUGAGGAGGUUGGAGGCGGAGAAGGUGUAGAAGGGUCAAAGA [JR_Exclu3_Sub022] (puzzle: Exclusion 3)
apparent KD of MS2 coat protein [1]: 0.0415 µM | apparent KD of MS2 coat protein [2]: 0.036 µM | apparent KD of MS2 coat protein [3]: 0.0514 µM

GAAGAGACAGGAUAUACAUGAGGAUCACCCAUGUGAGGAUGUUGGAGGCGGAGGAGGUGUAGAAGGGUCAAAGA [JR_Exclu3_Sub020] (puzzle: Exclusion 3)
apparent KD of MS2 coat protein [2]: 0.0267 µM

GAAGAGACAGGAUAUACAUGAGGAUCACCCAUGUGAGUAUGUUGGAGGCGGAGGAGAUGUAGAAGGGUCAAAGA [JR_Exclu3_Sub018] (puzzle: Exclusion 3)
apparent KD of MS2 coat protein [1]: 0.0363 µM | apparent KD of MS2 coat protein [2]: 0.0239 µM | apparent KD of MS2 coat protein [3]: 0.0297 µM

GAAGUUAGAGGAUAUACAUGAGGAUCACCCAUGUGUGAAGUAAACUUUGUAUGUUUAUGUAGAAGGCUAACUUC [-21.7, -19.9 kcal, 32% A] (Eterna round: R97, puzzle: Exclusion 3)
apparent KD of MS2 coat protein (input ligand: FMN 200 uM): 0.094 µM | apparent KD of MS2 coat protein (input ligand: none): 0.0191 µM

GAAUACAGAGGAUAUGCGUAAUAGGUAGUAAGAUAUAUAUGACAUGAGGAUCACCCAUGUAGAAGGCUGAGAUA [EX2 #1] (Eterna round: R97, puzzle: Exclusion 2)
apparent KD of MS2 coat protein (input ligand: FMN 200 uM): 0.0269 µM | apparent KD of MS2 coat protein (input ligand: none): 0.0305 µM

GAAUAGGGAGGAUAUCCAAUAUAUGACAUGAGGAUCACCCAUGUUUCCACUCGUACCUCCGGAGAAGGCCCAUAAG [Ex5 #5] (Eterna round: R97, puzzle: Exclusion 5)
apparent KD of MS2 coat protein (input ligand: FMN 200 uM): 0.0224 µM | apparent KD of MS2 coat protein (input ligand: none): 0.0306 µM

GACAGCGGAGGAUAUGCCGUAGAUUACAUGAGGAUCACCCAUGUGGGCUGUAAGUAAUAGGCAGAAGGCUGCCGUU [Eternabot (Original) Solution 33] (Eterna round: R97, puzzle: Exclusion 5)
apparent KD of MS2 coat protein (input ligand: FMN 200 uM): 0.144 µM | apparent KD of MS2 coat protein (input ligand: none): 0.109 µM

GACAUGAGGAUCACCCAUGUAACCAGGGCAAUUCUCGAAAUGGAGGAUAUGAAUCUUAAUUAGGUUCAGAAGGCCAGAAGGCUA [Eternabot solution 29] (Eterna round: R96, puzzle: Exclusion NG 3)
apparent KD of MS2 coat protein (input ligand: FMN 200 uM): 0.784 µM | apparent KD of MS2 coat protein [4]: 0.194 µM | apparent KD of MS2 coat protein (input ligand: none): 0.206 µM

GACAUGAGGAUCACCCAUGUAACCUCAUGUAGGAAGGAGAGUAAGGAUAUAUAUGAAGGAAUGAAGUAGAAGGUGCAUAGAGAG [Default title] (Eterna round: R96, puzzle: Exclusion NG 3)
apparent KD of MS2 coat protein (input ligand: FMN 200 uM): 0.539 µM | apparent KD of MS2 coat protein [4]: 1.35 µM | apparent KD of MS2 coat protein (input ligand: none): 0.854 µM

GACAUUUGAGGAUAUGCAGCUAGCUUCGUUUUCAAAUCGAGACAUGAGGAUCACCCAUGUAGAAGGCAAGGUCG [Eternabot (L1) Solution 88] (Eterna round: R97, puzzle: Exclusion 2)
apparent KD of MS2 coat protein (input ligand: FMN 200 uM): 0.0294 µM | apparent KD of MS2 coat protein (input ligand: none): 0.0319 µM

GACCAAUAGGUAGGAUAUCAUUGCGAUUAGCUAUGAGAAGGACCACAUGAGGAUCACCCAUGUCCUCUAAUUAGCCAAUUGGUA [8th something] (Eterna round: R96, puzzle: Exclusion NG 1)
apparent KD of MS2 coat protein (input ligand: FMN 200 uM): 0.426 µM | apparent KD of MS2 coat protein [4]: 0.17 µM | apparent KD of MS2 coat protein (input ligand: none): 0.0909 µM

GACCAGCUAGGAUAUACAUGAGGAUCACCCAUGUGCAUUAAAGGGCUGGGUGACCCGCGUAGAAGGAGCGGGUC [Ustieded] (Eterna round: R97, puzzle: Exclusion 3)
apparent KD of MS2 coat protein (input ligand: FMN 200 uM): 0.0139 µM | apparent KD of MS2 coat protein (input ligand: none): 0.0145 µM

GACCCAACCGUUAGGAUAUAGUCGACCUACGGCGACUAGAAGGAACAUGAGGAUCACCCAUGUGUGCGCACAAC [Eternabot (Original) Solution 25] (Eterna round: R97, puzzle: Brourd's mod of Exclusion 4)
apparent KD of MS2 coat protein (input ligand: FMN 200 uM): 0.19 µM | apparent KD of MS2 coat protein (input ligand: none): 0.0608 µM

GACCGGACGUGGUCUGGUAACAUGAGGAUCACCCAUGUAGGUCUAAGAACAUGCCUUUUGCACGCUCGUCUUAUAUA [JR_SV3TOV1_Sub063] (puzzle: Sensor v3, turn-off variant 1)
apparent KD of MS2 coat protein [1]: 0.0547 µM | apparent KD of MS2 coat protein [2]: 0.0382 µM | apparent KD of MS2 coat protein [3]: 0.0638 µM

GACCUACAUGAGGAUCACCCAUGUCAGGAUAUGUGGCGGAGUACGAACAGUCCAAGCGACAGAAGGGACAACAG [Eternabot (Original) Solution 24] (Eterna round: R97, puzzle: Exclusion 1)
apparent KD of MS2 coat protein (input ligand: FMN 200 uM): 0.0278 µM | apparent KD of MS2 coat protein (input ligand: none): 0.0253 µM

GACCUAUAGGUAGGAUAUCAUUGCGAUUAGCUAUGAGAAGGACCACAUGAGGAUCACCCAUGUCCUCCAAUUAACCAUAAGGUC [Fiskers ExNg1 - 5] (Eterna round: R96, puzzle: Exclusion NG 1)
apparent KD of MS2 coat protein (input ligand: FMN 200 uM): 0.0987 µM | apparent KD of MS2 coat protein [4]: 0.0346 µM | apparent KD of MS2 coat protein (input ligand: none): 0.0409 µM

GACCUAUAGGUAGGAUAUCAUUGCGAUUAGCUAUGAGAAGGACCACAUGAGGAUCACCCAUGUCCUCCAAUUAGCCAUUUGGUC [Fiskers ExNg1 - 7] (Eterna round: R96, puzzle: Exclusion NG 1)
apparent KD of MS2 coat protein (input ligand: FMN 200 uM): 0.196 µM | apparent KD of MS2 coat protein [4]: 0.047 µM | apparent KD of MS2 coat protein (input ligand: none): 0.0583 µM

GACCUAUAGGUAGGAUAUCAUUGCGAUUAGCUAUGAGAAGGGCCACAUGAGGAUCACCCAUGUCCUCCAAUUAACCAUAAGGUC [Fiskers ExNg1 - 6] (Eterna round: R96, puzzle: Exclusion NG 1)
apparent KD of MS2 coat protein (input ligand: FMN 200 uM): 0.0385 µM | apparent KD of MS2 coat protein [4]: 0.0267 µM | apparent KD of MS2 coat protein (input ligand: none): 0.0373 µM

GACCUGAGGCAAAGCUUUAGGCUUACAUGAGGAUCACCCAUGUAGGAUAUGGUAGGCAAAGCUUACCAGAAGGACAUGGAAAUU [Mat - Exclusion NG 3 - Mod of JL - D25] (Eterna round: R96, puzzle: Exclusion NG 3)
apparent KD of MS2 coat protein (input ligand: FMN 200 uM): 0.646 µM | apparent KD of MS2 coat protein [4]: 0.0987 µM | apparent KD of MS2 coat protein (input ligand: none): 0.125 µM
